Columns and labels:
[1] = biological target: human CD40 (human) (UniProt P25942); test: Biacore
[2] = biological target: T1, soluble CD40 (Homo sapiens (Human), UniProt P25942 20-193); test: ELISA-type assays
T1 construct: Soluble CD40 as used in ELISA-type assays; the real soluble form is shorter
T1 sequence (P25942 20-193): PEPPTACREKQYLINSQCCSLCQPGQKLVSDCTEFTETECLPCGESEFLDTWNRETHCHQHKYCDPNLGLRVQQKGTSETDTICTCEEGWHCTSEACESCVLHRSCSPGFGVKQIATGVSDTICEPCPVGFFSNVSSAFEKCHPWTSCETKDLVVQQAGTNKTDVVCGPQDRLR

Kd [1]: 0.5 nM
binding result [2]: binds
B1: monoclonal antibody HCD122 (antibody, human IgG1, kappa, V domains shown)
VH: QVQLVESGGGVVQPGRSLRLSCAASGFTFSSYGMHWVRQAPGKGLEWVAVISYEESNRYHADSVKGRFTISRDNSKITLYLQMNSLRTEDTAVYYCARDGGIAAPGPDYWGQGTLVTVSS
VL: DIVMTQSPLSLTVTPGEPASISCRSSQSLLYSNGYNYLDWYLQKPGQSPQVLISLGSNRASGVPDRFSGSGSGTDFTLKISRVEAEDVGVYYCMQARQTPFTFGPGTKVDIRR
notes: Fully human IgG1 kappa anti-CD40 monoclonal antibody from the hybridoma deposited as ATCC PTA-5543; also called CHIR-12.12
